Reference: patent publication US11414646 (QURATIS, dated 2022)

Molecular target: T1, Toll-like receptor 4 (TLR4) of mouse bone marrow-derived dendritic cells (mouse, UniProt Q9QUK6 26-835)
T1 construct: whole, on cells; also called TLR (toll-like receptor)-4
T1 sequence: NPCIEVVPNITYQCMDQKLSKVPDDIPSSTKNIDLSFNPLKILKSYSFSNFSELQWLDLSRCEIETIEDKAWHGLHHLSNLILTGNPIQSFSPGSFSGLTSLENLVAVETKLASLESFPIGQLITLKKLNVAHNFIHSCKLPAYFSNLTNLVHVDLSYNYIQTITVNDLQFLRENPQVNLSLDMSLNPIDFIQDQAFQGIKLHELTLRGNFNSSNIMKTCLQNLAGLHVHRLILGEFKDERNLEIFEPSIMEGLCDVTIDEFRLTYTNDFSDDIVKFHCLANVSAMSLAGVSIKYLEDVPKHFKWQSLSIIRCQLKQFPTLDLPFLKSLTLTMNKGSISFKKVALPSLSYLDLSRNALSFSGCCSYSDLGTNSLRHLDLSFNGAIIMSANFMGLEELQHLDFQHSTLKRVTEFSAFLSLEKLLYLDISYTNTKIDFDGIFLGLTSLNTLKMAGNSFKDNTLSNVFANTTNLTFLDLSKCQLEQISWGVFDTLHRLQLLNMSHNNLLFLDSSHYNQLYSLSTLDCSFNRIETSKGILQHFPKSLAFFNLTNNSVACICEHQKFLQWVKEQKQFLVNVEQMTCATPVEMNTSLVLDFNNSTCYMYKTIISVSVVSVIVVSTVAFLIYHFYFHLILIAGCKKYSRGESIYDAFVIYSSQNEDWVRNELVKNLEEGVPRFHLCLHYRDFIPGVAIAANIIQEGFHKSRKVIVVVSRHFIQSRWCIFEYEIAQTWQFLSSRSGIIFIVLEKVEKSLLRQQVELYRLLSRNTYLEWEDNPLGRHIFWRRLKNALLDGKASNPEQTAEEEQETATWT
Assay: figure legend for FIGS. 3D-3F: confocal microscopy, FACS and immunoprecipitation

B1: Recombinant Rv2299c protein (His-tagged, Mycobacterium tuberculosis H37Rv, expressed in E. coli BL21) (ligand)
chain: MNAHVEQLEFQAEARQLLDLMVHSVYSNKDAFLRELISNASDALDKLRIEALRNKDLEVDTSDLHIEIDADKAARTLTVRDNGIGMAREEVVDLIGTLAKSGTAELRAQLREAKNAAASEELIGQFGIGFYSSFMVADKVQLLTRKAGESAATRWESSGEGTYTIESVEDAPQGTSVTLHLKPEDAEDDLHDYTSEWKIRNLVKKYSDFIAWPIRMDVERRTPASQEEGGEGGEETVTIETETLNSMKALWARPKEEVSEQEYKEFYKHVAHAWDDPLEIIAMKAEGTFEYQALLFIPSHAPFDLFDRDAHVGIQLYVKRVFIMGDCDQLMPEYLRFVKGVVDAQDMSLNVSREILQQDRQIKAIRRRLTKKVLSTIKDVQSSRPEDYRTFWTQFGRVLKEGLLSDIDNRETLLGISSFVSTYSEEEPTTLAEYVERMKDGQQQIFYATGETRQQLLKSPHLEAFKAKGYEVLLLTDPVDEVWVGMVPEFDGKPLQSVAKGEVDLSSEEDTSEAEREERQKEFADLLTWLQETLSDHVKEVRLSTRLTESPACLITDAFGMTPALARIYRASGQEVPVGKRILELNPSHPLVTGLRQAHQDRADDAEKSLAETAELLYGTALLAEGGALEDPARFAELLAERLARTL
notes: also called Rv2299c (His); HSP90 family protein
Question: Does B1 bind?
Answer: Result: binds
